Here are results for 2 molecules from patent publication US20090324579A1 (UNIVERSITY OF WINDSOR, published 2009).

The target of the test is T1, BSA (UniProt P02769 25-607).
T1 construct: also called control BSA antigen; control antigen
Put plainly: phage ELISA. In general terms: An ELISA detects its analyte on a solid surface through an enzyme-linked reagent.

T1 sequence (P02769 25-607 limits assumed): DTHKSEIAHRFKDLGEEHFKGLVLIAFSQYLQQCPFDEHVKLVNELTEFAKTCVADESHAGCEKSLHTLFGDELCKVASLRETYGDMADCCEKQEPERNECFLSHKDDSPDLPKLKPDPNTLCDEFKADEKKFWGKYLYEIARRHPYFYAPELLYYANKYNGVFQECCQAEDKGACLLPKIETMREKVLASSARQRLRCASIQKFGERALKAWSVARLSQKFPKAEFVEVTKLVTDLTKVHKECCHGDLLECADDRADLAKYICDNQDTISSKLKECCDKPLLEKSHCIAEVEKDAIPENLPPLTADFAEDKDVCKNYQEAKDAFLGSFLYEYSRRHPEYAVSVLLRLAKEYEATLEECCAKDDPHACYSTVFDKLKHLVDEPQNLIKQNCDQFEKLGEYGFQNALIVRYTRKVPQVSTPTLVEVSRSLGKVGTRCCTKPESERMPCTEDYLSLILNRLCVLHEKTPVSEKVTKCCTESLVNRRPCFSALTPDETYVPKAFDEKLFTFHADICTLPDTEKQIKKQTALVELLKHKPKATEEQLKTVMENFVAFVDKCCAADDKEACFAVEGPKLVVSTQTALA

B1: Casp1 VHH displayed on phage (VHH)
VHH: DVQLQASGGGLVQPGGSLRLSCAASGSLSRITVMGWYRQAPGKQRELVAIITSSGGTNYADSVKGRFTISRDNAKNTVYLQMNSLKPEDTAVYYCLAARGYDRYWGRGTQVTVSS
notes: also called Casp1 sdAb
For B1, the binding result is “no binding”.

B2: Casp2 VHH displayed on phage (VHH)
VHH: DVQLQASGGGLVQAGGSLRLSCAASTNIFRDKFMAWYRQAPGKQRELVASITTGGRTDYADSVKGRFTISRDNTKDTMYLQMNSLKPEDTAVYYCAGFLGRTYWGQGTQVTVSS
notes: also called Casp2 sdAb
In the case of B2, the binding result is recorded as “no binding”.
